Assay results as given in US20230408517A1 (BIO TECHNE, published 2023).
Where two headings read alike, the source gives them in different places.

Columns and labels:
[1] = target: rSARS2-B.1.1.7 S aa16-1211 4x aa mut., C-His (SARS-CoV-2, UniProt P0DTC2 16-1211); assay: flow cytometry, blocking of binding to hACE-2 cells
[2] = target: T1, IN v2 variant RBD (R319-F541 with L452R, T478K) (SARS-CoV-2, UniProt P0DTC2 319-541); assay: as above
[3] = target: T2, BR P.1 variant RBD (R319-F541 with K417T, E484K, N501Y), C-terminal 6-His (SARS-CoV-2, UniProt P0DTC2 319-541); assay: as above
[4] = target: rSARS2 RBD aa319-541, N439K, C-His (SARS-CoV-2, UniProt P0DTC2 319-541); assay: as above
[5] = target: rSARS2-B.1.1.7 S aa16-1211 2x aa mut., C-His (SARS-CoV-2, UniProt P0DTC2 16-1211); assay: as above
[6] = target: rSARS2-B.1.617.2 S aa16-1211 10+4x aa mut., C-His (SARS-CoV-2, UniProt P0DTC2 16-1211); assay: as above
[7] = target: T3, recombinant SARS-CoV-2 spike S1 RBD (R319-F541), C-terminal 6-His (SARS-CoV-2, UniProt P0DTC2 319-541); assay: as above
[8] = target: K417E RBD (R319-F541 with K417E) (SARS-CoV-2, UniProt P0DTC2 319-541); assay: lateral flow NC50, RBD-AuNP vs immobilised ACE2
[9] = target: T1, IN v2 variant RBD (R319-F541 with …); assay: lateral flow NC50, RBD-AuNP vs immobilised ACE2
[10] = target: BR P.2 variant RBD (R319-F541 with E484K) (SARS-CoV-2, UniProt P0DTC2 319-541); assay: lateral flow NC50, RBD-AuNP vs immobilised ACE2
[11] = target: T2, BR P.1 variant RBD (R319-F541 with …); assay: lateral flow NC50, RBD-AuNP vs immobilised ACE2
[12] = target: IN v1 variant RBD (R319-F541 with L452R, E484Q) (SARS-CoV-2, UniProt P0DTC2 319-541); assay: lateral flow NC50, RBD-AuNP vs immobilised ACE2
[13] = target: T478K RBD (R319-F541 with T478K) (SARS-CoV-2, UniProt P0DTC2 319-541); assay: lateral flow NC50, RBD-AuNP vs immobilised ACE2
[14] = target: T3, recombinant SARS-CoV-2 spike S1 RBD …; assay: lateral flow NC50, RBD-AuNP vs immobilised ACE2
[15] = target: T4, UK variant RBD (R319-F541 with N501Y), C-terminal 6-His (SARS-CoV-2, UniProt P0DTC2 319-541); assay: lateral flow NC50, RBD-AuNP vs immobilised ACE2
[16] = target: L452R RBD (R319-F541 with L452R) (SARS-CoV-2, UniProt P0DTC2 319-541); assay: lateral flow NC50, RBD-AuNP vs immobilised ACE2
[17] = target: T5, SA variant RBD (R319-F541 with K417N, E484K, N501Y), C-terminal 6-His (SARS-CoV-2, UniProt P0DTC2 319-541); assay: lateral flow NC50, RBD-AuNP vs immobilised ACE2
[18] = target: T3, recombinant SARS-CoV-2 spike S1 RBD …; assay: flow cytometry, blocking of binding to hACE-2 cells; remark: listed apart in the source
[19] = target: T2, BR P.1 variant RBD (R319-F541 with …); assay: lateral flow NC50, RBD-AuNP vs immobilised ACE2; remark: listed apart in the source
[20] = target: T3, recombinant SARS-CoV-2 spike S1 RBD …; assay: lateral flow NC50, RBD-AuNP vs immobilised ACE2; remark: listed apart in the source
[21] = target: T4, UK variant RBD (R319-F541 with N501Y), …; assay: lateral flow NC50, RBD-AuNP vs immobilised ACE2; remark: listed apart in the source
[22] = target: T5, SA variant RBD (R319-F541 with K417N, …); assay: lateral flow NC50, RBD-AuNP vs immobilised ACE2; remark: listed apart in the source
[23] = target: T2, BR P.1 variant RBD (R319-F541 with …); assay: sandwich dipstick, detector Ab4-AuNP
[24] = target: T3, recombinant SARS-CoV-2 spike S1 RBD …; assay: sandwich dipstick, detector Ab4-AuNP
[25] = target: T4, UK variant RBD (R319-F541 with N501Y), …; assay: sandwich dipstick, detector Ab4-AuNP
[26] = target: T5, SA variant RBD (R319-F541 with K417N, …); assay: sandwich dipstick, detector Ab4-AuNP
[27] = target: T2, BR P.1 variant RBD (R319-F541 with …); assay: sandwich dipstick, detector Ab5-AuNP
[28] = target: T3, recombinant SARS-CoV-2 spike S1 RBD …; assay: sandwich dipstick, detector Ab5-AuNP
[29] = target: T4, UK variant RBD (R319-F541 with N501Y), …; assay: sandwich dipstick, detector Ab5-AuNP
[30] = target: T5, SA variant RBD (R319-F541 with K417N, …); assay: sandwich dipstick, detector Ab5-AuNP

Row | Binder | percent blocking [1] [%] | percent blocking [2] [%] | percent blocking [3] [%] | percent blocking [4] [%] | percent blocking [5] [%] | percent blocking [6] [%] | percent blocking [7] [%] | IC50 [8] [µg/mL] | IC50 [9] [µg/mL] | IC50 [10] [µg/mL] | IC50 [11] [µg/mL] | IC50 [12] [µg/mL] | IC50 [13] [µg/mL] | IC50 [14] [µg/mL] | IC50 [15] [µg/mL] | IC50 [16] [µg/mL] | IC50 [17] [µg/mL] | percent blocking [18] [%] | IC50 [19] [µg/mL] | IC50 [20] [µg/mL] | further results
1 | 1035419 (antibody, V domains shown) VH: QVQLKQSGAELVRPGASVKLSCKTSGYIFTSYWIHWIKQRSGQGLEWIARIYPGTGSTYNNEKFKGKATLTADKSSSTAYMQLSSLKSEDSAVYFCARGEDNLYFYAMDYWGQGTSVTVSS VL: NIVLTQSPASLAVSLGQRATISCRASESVDSYGASFMHWCQQKPGQPPKLLIYLASNLESGVPARFSGSGSRTDFTLTIDPVEADDAATYYCQQNYEDPWTFGGGTKLEIK | 33.3 | 72.5 | 8.7 | 69.3 | 21.8 | 78.5 | 90.2 | 1.51 | 33.2 | 6.48 | 44.8 | 16.5 | 9.01 | 3.27 | 27.6 | 20.6 | 24 | 90.2 | 44.8 | 3.27 | IC50 [21]: 27.6 µg/mL; IC50 [22]: 24 µg/mL; detection sensitivity [23]: 0.01 µg/mL; detection sensitivity [24]: 0.01 µg/mL; detection sensitivity [25]: 0.01 µg/mL; detection sensitivity [26]: 0.01 µg/mL
2 | 1035740 (antibody, V domains shown) VH: EVLLQQSGPELVKPGASVKIPCKASGYTFTDYNMDWVKQSHGKSLEWIGDINPNNGFTIYNQKFKGKATLTVDKSSSTAYMELRSLTSEDTAVYYCAREGYGNYFDYWGQGTTLTVSS VL: DVLLTQSPAILSVSPGERVSFSCRASQSIGTSLHWYQQRTNGSPRLLIKYVSESISGIPSRFSGSGSGTDFTLSINSVESEDIADYYCQQSSSWPTTFGAGTKLELK | 82.1 | 96.5 | 95 | 96 | 94.3 | 89.6 | 94.6 | 1.09 | 1.61 | 1.48 | 1.4 | 1.79 | 1.21 | 1.43 | 1.35 | 1.17 | 1.83 | 94.6 | 1.4 | 1.43 | IC50 [21]: 1.35 µg/mL; IC50 [22]: 1.83 µg/mL; detection sensitivity [23]: 0.01 µg/mL; detection sensitivity [24]: 0.01 µg/mL; detection sensitivity [25]: 0.01 µg/mL; detection sensitivity [26]: 0.01 µg/mL
3 | 1035709 (antibody, V domains shown) VH: EVQLQQSGPELVKPGASVKISCKTSGYTFTEYTMHWVKQSHGKSLEWIGGINPNIVDTGYNQKFKGKATLTVDKSSSTAYMELRSLTSEDSAVYYCARDGYPLYYAMDYWGQGTSVTVSS VL: DIQMTQSPSSLSASLGERVSLTCRASQEISGYLSWLQQKPDGTIKRLIYAASTLDSGVPKRFSGSRSGSDYSLTISSLESEDFADYYCLQYASYPWTFGGGTKLEIK | 80.7 | 5.3 | 90 | 90.8 | 92.1 | 58.8 | 94.7 | 0.38 | 2.33 | 0.61 | 0.7 | 0.66 | 1.35 | 0.63 | 1.08 | 0.92 | 0.91 | 94.7 | 0.7 | 0.63 | detection sensitivity [27]: 0.001 µg/mL; detection sensitivity [28]: 0.001 µg/mL; detection sensitivity [29]: 0.001 µg/mL; detection sensitivity [30]: 0.001 µg/mL; IC50 [21]: 1.08 µg/mL; IC50 [22]: 0.91 µg/mL
4 | 1035762 (antibody, V domains shown) VH: EVQLQQSGPELVKPGASVKISCKTSGYTFTEYTMHWVKQSHGKSLEWIGGINPNNGDTGYNQKFKGKATLTVDKSSSTAYMELRSLTFEDSAVYYCARDGYPLYYAMDYWGQGTSVTVSS VL: DIQMTQSPSSLSASLGERVSLTCRASQEISGYLCWLQQKPDGTIKRLIYAASTLDSAVPKRFSGSRSGSDYSLTISSLESEDFADFYCLQYASYPWTFGGGTKLEIK | 75.2 | 1.5 | 40.5 | 42.7 | 75.7 | 18.7 | 94.1 | 0.49 | 2.57 | 0.85 | 0.69 | 0.77 | 3.77 | 0.69 | 0.95 | 0.73 | 0.7 | 94.1 | 0.69 | 0.69 | detection sensitivity [27]: 0.001 µg/mL; detection sensitivity [28]: 0.001 µg/mL; detection sensitivity [29]: 0.001 µg/mL; detection sensitivity [30]: 0.001 µg/mL; IC50 [21]: 0.95 µg/mL; IC50 [22]: 0.7 µg/mL
